US20030096753A1 (published 2003)

How the values were obtained:
[1] = target: T1, Purified recombinant human NGF (human, UniProt P01138 122-241, limits assumed, radioiodinated with 125I (lactoperoxidase method) where used as tracer); assay: competitive binding assay, 125I-NGF on A875 cells; reference TrkAIg1,2
T1 construct: also called unlabeled human NGF
Procedure: (§1) The binding affinity of ¹²⁵I-NGF to the Ig-like domains of TrkA was determined by a competitive binding assay using the melanoma cell line A875 American Tissue Culture Collection (ATCC) which expresses the NGF receptor p75^NGFR.
(§2) Purified recombinant human NGF was radioiodinated with I¹²⁵ using a lactoperoxidase method and equilibrium binding with [¹²⁵I]-NGF was carried out (Treanor et al., 1991; Neuroscience Letters 121 p73-76). Briefly A875 cells (10⁶ per ml) were incubated with [¹²⁵I]-NGF (0.14 nM) and serial dilutions of unlabeled human NGF (concentration range: 10⁻⁶ M to 1×10⁻¹¹ M), TrkAIg1,2 (concentration range: 4×10⁻⁶ M to 1×10⁻¹¹ M) or TrkAIg2 (concentration range 5×10⁻⁶ M to 1×10 ⁻¹¹ M). Tubes were shaken vigorously at room temperature for 1 hr. 100 μl aliquots were then layered over 200 μl sucrose (0.15 M in binding buffer) in Beckman tubes. After centrifugation (15 seconds at 20,000 g) bound and free [¹²⁵I]-NGF were separated by freezing the tubes in liquid nitrogen and determining the bound [¹²⁵I]-NGF of the cell pellet. Binding reactions were carried out in triplicate. Counts were corrected for background and specific binding was between 85-87% of total binding. The competitive binding assay (FIG. 9) allowed estimation of the binding affinity of [¹²⁵I]-NGF to the recombinant TrkAIg2 protein. […]

[2] = target: 7S NGF (complex of 2.5S (β-NGF) and γ NGF); assay: cell-based or functional assay
Chain of 7S NGF (complex of 2.5S (β-NGF) and γ NGF) (P01139 122-241, one chain of several): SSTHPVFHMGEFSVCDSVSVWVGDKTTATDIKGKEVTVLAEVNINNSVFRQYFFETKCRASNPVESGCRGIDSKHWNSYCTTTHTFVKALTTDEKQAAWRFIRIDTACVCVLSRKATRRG

[3] = target: NGF (source and species not stated; used in the BiaCore study and on PC12 cells); assay: SPR (BiaCore-X), TrkAIg2 amine-coupled to the chip, NGF 40 nM to 500 nM as analyte, BiaEval 3.0 fit
Chain of NGF (source and species not stated; used in the BiaCore study and on PC12 cells) (chain, as listed by the source): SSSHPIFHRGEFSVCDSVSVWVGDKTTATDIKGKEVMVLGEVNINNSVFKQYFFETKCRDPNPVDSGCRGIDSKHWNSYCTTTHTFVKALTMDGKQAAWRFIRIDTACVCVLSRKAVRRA
Procedure: TrkAIg2 was covalently attached to the surface of the sensor chip by coupling with amine groups on TrkAIg2 to carboxyl groups on the surface using BiaCore Amine Coupling kit and varying concentrations of NGF passed over at a constant flow rate of 20 μl/min for two minutes. Data were collected for a range of NGF concentrations of 1 μM to 1 nM. […] However, data collected for the range 40 nM to 500 nM could be successfully evaluated.

[4] = target: T1, Purified recombinant human NGF; assay: competitive binding assay, 125I-NGF on A875 cells (p75NGFR), numerical fit
Procedure: as §1, §2

[5] = target: T1, Purified recombinant human NGF; assay: displacement binding assays of the two Poros 20HQ peaks

T1 sequence (P01138 122-241 limits assumed): as the sequence (chain, as listed by the source) above

B1: TrkAIg2 (his TrkAIg2; TrkA Ig-like sub-domain 2 together with the proline rich region, amino acids 253-375; first, active peak from Poros 20HQ) (receptor)
chain: MGSSHHHHHHSSGLVPRGSHMPASVQLHTAVEMHHWCIPFSVDGQPAPSLRWLFNGSVLNETSFIFTEFLEPAANETVRHGCLRLNQPTHVNNGNYTLLAANPFGQASASIMAAFMDNPFEFNPEDPIPDTNSTSGDPVEKKDE
notes: The range 253-375 counts on the mature extracellular domain, not on the precursor; Removal of the His tag is not reported; also called TrkIg2; TrkAIg2 domain
- fold IC50 against TrkAIg1,2 [1]: 3 fold
- NGF-induced plasma extravasation in rat skin, co-injection [2]: 10 fold excess
- Kd [3]: 11.8 nM

B2: TrkAIg1,2 (the two immunoglobulin-like domains and proline-rich region of TrkA, amino acids 160-375) (receptor)
chain: MGSSHHHHHHSSGLVPRGSHMLEGVPTLKVQVPNASVDVGDDVLLRCQVEGRGLEQAGWILTELEQSATVMKSGGLPSLGLTLANVTSDLNRKNLTCWAENDVGRAEVSVQVNVSFPASVQLHTAVEMHHWCIPFSVDGQPAPSLRWLFNGSVLNETSFIFTEFLEPAANETVRHGCLRLNQPTHVNNGNYTLLAANPFGQASASIMAAFMDNPFEFNPEDPIPDTNSTSGDPVEKKDE
notes: The range counts on the mature extracellular domain; also called TrkAIg1,2 domain
- Kd [4]: 3.3 nM

B3: TrkAIg1 (his TrkAIg1; TrkA Ig-like sub-domain 1, amino acids 160-252) (receptor)
chain: MGSSHHHHHHSSGLVPRGSHMLEGVPTLKVQVPNASVDVGDDVLLRCQVEGRGLEQAGWILTELEQSATVMKSGGLPSLGLTLANVTSDLNRKNLTCWAENDVGRAEVSVQVNVSF
notes: Two peaks eluted from Poros 20HQ; both were tested in the displacement assay; also called first immunoglobulin-like domain
- binding result [5]: no binding
